The record followed here is patent publication US20180208648A1 (SCHOLAR ROCK, published 2018).

One assay deals with T1, human mature GDF11 (human, UniProt O95390 299-407, biotinylated, site not stated).
T1 construct: Growth factor domain; also called GDF11 mature growth factor
T1 sequence: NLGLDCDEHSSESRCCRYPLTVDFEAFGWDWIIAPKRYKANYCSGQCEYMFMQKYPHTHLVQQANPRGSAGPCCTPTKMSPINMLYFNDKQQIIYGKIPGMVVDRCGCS
The assay can be described thus: ELISA, biotinylated antigen on neutravidin plate. An excerpt:
(§1) Candidate clones were converted to human IgG1 format. Full-length IgG antibodies were further characterized by ELISA for binding to the human and murine pro- and latent-forms of myostatin and GDF11. Antibodies were also screened for binding to the Myostatin prodomain (SEQ ID NO: 85), proTGFDβ1 (human and murine), the mature growth factor of Myostatin (SEQ ID NO: 89), the GDF11 mature growth factor (SEQ ID NO: 90), and proActivin A (SEQ ID NO: 84). Chimeric constructs which swapped portions of the prodomains of Myostatin and GDF11 were designed and produced. For example proGDF11 arm8 (SEQ ID NO: 112) refers to GDF11 having the GDF8 arm domain, and prodomain GDF11 arm8 (SEQ ID NO: 114) refers to the GDF11 prodomain having the GDF8 arm domain. These chimeric proteins were assayed for interaction with screening antibodies by ELISA and allowed for the assessment of binding of antibodies to the ARM or straight jacket portions of the GDF11 prodomain complex. Antibodies were selected based on their cross-reactivity with pro- and latent human and murine GDF11, with no interactions with GDF8, Activin, or TGFβ proteins. Activin A is a homodimer of inhibin-beta A subunits. For example, Inhibin-beta A can heterodimerize with other proteins to produce different Activin proteins.
(§2) Enzyme-linked immunosorbent assay (ELISA) analysis is carried out to assess antibody binding. 96-well ELISA assay plates are coated with neutravidin, a deglycosylated version of streptavidin with a more neutral pH. Target proteins are expressed with or without histidine (His) tags and subjected to biotinylation. Biotinylated target proteins are incubated with neutravidin-coated ELISA assay plates for two hours at room temperature and unbound proteins are removed by washing three times with wash buffer (either 25 mM Tris, 150 mM NaCl, 0.05% TWEEN®-20, or 20 mM Hepes pH 7.5, 500 mM NaCl, 0.05% TWEEN®-20). Primary antibodies being tested are added to each well and allowed to incubate at room temperature for 1 hour or more. Unbound antibody is then removed by washing three times with wash buffer. Secondary antibodies capable of binding to primary antibodies being tested and conjugated with detectable labels are then incubated in each well for 30 minutes at room temperature. Unbound secondary antibodies are removed by washing three times with wash buffer.
For orientation: In an ELISA, binding on a coated surface is turned into a signal by an enzyme label.

Assay [1] deals with T2, murine proGDF11 (mouse, UniProt Q9Z1W4 25-405, biotinylated, site not stated).
T2 sequence: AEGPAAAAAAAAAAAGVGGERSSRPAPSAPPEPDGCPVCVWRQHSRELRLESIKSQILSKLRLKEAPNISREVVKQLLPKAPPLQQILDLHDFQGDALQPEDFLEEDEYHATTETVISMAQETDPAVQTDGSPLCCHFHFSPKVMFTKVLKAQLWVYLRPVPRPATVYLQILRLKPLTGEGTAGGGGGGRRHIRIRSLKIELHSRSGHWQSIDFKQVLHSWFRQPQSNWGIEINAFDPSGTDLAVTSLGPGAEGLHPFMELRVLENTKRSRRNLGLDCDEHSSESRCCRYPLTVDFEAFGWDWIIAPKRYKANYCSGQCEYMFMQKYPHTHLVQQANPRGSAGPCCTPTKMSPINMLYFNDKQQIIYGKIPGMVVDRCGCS
In words: cell-based or functional assay.

For assay [2], the target named is T3, human proGDF11 (human, UniProt O95390 25-407, biotinylated (NHS-PEG4-Biotin), site not stated).
T3 sequence: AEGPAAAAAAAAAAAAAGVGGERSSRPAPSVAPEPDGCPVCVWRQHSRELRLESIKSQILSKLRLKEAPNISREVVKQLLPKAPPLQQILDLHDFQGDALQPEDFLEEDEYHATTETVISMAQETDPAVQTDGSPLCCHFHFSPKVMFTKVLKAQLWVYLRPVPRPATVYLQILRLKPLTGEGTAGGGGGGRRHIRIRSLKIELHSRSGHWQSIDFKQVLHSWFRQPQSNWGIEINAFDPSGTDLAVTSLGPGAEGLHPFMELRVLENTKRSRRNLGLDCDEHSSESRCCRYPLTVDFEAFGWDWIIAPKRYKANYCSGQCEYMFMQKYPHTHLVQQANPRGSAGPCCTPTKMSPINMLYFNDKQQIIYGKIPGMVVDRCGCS
The assay can be described thus: cell-based or functional assay.

Assay [3] has as its target T3, human proGDF11. The assay can be described thus: BLI (ForteBio Octet). In general terms: Biolayer interferometry detects binding as a change in optical thickness at a sensor tip.
The target of a further assay is T4, human proActivin A (human, UniProt P08476 21-426, biotinylated (immobilized on streptavidin biosensors), site not stated).
T4 construct: also called human Activin A; Inhibin-beta A pro-protein
T4 sequence: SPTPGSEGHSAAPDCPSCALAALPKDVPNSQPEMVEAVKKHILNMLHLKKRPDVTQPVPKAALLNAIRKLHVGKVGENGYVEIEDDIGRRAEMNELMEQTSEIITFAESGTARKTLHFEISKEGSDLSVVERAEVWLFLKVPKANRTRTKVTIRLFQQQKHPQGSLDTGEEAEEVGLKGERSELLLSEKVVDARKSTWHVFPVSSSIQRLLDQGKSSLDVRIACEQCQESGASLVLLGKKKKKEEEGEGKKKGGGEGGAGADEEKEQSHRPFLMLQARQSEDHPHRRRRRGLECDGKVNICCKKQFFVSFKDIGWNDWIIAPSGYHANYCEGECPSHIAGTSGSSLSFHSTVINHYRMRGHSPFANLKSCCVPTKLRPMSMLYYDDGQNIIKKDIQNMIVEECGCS
The assay can be described thus: BLI (ForteBio Octet QKe), antigen on streptavidin biosensor, antibody in solution.

Assay [4] concerns the target T3, human proGDF11. The assay can be described thus: cell-based or functional assay. The source holds these as a separate data set.
Assay [5] concerns the target T3, human proGDF11. In words: cell-based or functional assay. The source holds these as a separate data set.
A further assay has as its target T5, human latent GDF11 (human, UniProt O95390 25-407, biotinylated, site not stated).
T5 construct: also called hu latent GDF11
T5 sequence: T3 sequence
In words: BLI (ForteBio Octet).

In another assay the target is T6, human proGDF8 (human, UniProt O14793 24-375, biotinylated, site not stated).
T6 construct: also called hu proGDF8; human proMyostatin
T6 sequence: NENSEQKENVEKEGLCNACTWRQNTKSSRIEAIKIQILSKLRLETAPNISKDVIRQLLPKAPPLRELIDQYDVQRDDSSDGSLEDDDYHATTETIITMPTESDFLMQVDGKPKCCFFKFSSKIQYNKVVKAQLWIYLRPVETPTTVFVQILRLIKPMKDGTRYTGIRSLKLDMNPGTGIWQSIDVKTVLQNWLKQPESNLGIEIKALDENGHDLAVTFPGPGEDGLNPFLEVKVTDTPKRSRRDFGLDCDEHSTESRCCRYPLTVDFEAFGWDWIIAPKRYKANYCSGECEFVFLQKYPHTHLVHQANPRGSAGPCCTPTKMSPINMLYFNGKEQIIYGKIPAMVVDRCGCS
In words: ELISA, biotinylated antigen on neutravidin plate.
Excerpt: as §1, §2

Assay [6] deals with T7, human prodomain GDF11 ARM8 (human, biotinylated, site not stated).
T7 construct: GDF11 prodomain having the GDF8 arm domain; also called human GDF11 ARM8 prodomain
T7 chain: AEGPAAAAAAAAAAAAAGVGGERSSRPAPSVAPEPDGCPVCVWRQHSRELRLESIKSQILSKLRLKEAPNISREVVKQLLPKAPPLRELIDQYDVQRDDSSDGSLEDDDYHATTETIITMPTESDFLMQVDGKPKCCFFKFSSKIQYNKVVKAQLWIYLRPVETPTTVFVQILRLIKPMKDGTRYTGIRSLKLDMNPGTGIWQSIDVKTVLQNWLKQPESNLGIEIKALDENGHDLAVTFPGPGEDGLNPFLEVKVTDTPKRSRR
In words: ELISA, biotinylated antigen on neutravidin plate.
Excerpt: as §1, §2

A further assay addresses T8, human proGDF11 ARM8 (human, biotinylated, site not stated).
T8 construct: GDF11 having the GDF8 arm domain
T8 chain: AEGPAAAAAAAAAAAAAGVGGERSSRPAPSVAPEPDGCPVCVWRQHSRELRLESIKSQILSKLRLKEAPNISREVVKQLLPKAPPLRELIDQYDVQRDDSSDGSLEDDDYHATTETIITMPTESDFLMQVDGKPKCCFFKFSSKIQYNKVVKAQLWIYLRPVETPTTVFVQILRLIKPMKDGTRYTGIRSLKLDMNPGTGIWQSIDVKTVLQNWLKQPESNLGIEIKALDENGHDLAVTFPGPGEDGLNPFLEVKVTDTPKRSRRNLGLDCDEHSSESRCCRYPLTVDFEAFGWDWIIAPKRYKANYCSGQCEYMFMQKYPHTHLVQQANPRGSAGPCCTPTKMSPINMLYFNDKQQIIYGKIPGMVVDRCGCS
The assay can be described thus: ELISA, biotinylated antigen on neutravidin plate.
Excerpt: as §1, §2

The target of assay [7] is T2, murine proGDF11. The assay can be described thus: BLI (ForteBio Octet).

B1: GDF11 Inh-7 (antibody, V domains shown)
VH: EVQLVQSGGGLVQPGGSLRLSCAASGFTFSSYSMNWVRQAPGKGLEWVSYISSSSSTIYYADSVKGRFTISRDNAKNSLYLQMNSLRAEDTAVYYCARDGIYYDSSGYYDLFDYWGQGTLVTVSS
VL: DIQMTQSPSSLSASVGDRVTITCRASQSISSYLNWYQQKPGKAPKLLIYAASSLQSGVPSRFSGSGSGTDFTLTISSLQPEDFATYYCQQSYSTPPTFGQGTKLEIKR
notes: also called Clone GDF11 Inh-7
The Kd is a measure of binding affinity in units of concentration. Take B1: the binding result with human mature GDF11 was “no binding”. Besides, the “Murine proGDF11 % inhibition (proGDF11 activation assay, CAGA luciferase reporter in 293T cells)” value (shortened to “Murine proGDF11 % inhibition”) with murine proGDF11 [1] was found to be 53%. The “Human proGDF11 % Inhibition (proGDF11 activation assay, CAGA luciferase reporter in 293T cells)” value (“Human proGDF11 % Inhibition” below) in the assay with human proGDF11 [2] stood at 74%. For the same molecule, the affinity with human proGDF11 [3], expressed as Kd, was 2.12 nM.

B2: GDF11 Inh-5 (antibody, V domains shown)
VH: EVQLVQSGAEVKKPGASVKVSCKASGYTFTGYYIYWVRQAPGQGLEWMGWIRPNSGDTNYAQKFQDRLTMTRDTSISTAYMELSRLRSDDTAVYYCAGNYDILTGYQAPLGYWGQGALVTVSS
VL: DIVLTQSPATLSVSPGERATLSCRASQRVISNYLAWYQQKPGQAPRLLIYGASSRATGIPDRFSGSGSGTDFTLSISRLEPEDFAVYYCQHYGPFGGGTKVEIKR
notes: also called Clone GDF11 Inh-5
B2: in the assay with human proActivin A, the binding result is “no binding (tested: 50 µg/mL)”. The “EC50 (inhibition of proGDF11 activation; CAGA luciferase reporter in 293T cells after overnight proteolysis)” value in the assay with human proGDF11 [4] is roughly 30.3 nM. Besides, the “Murine proGDF11 % inhibition” value with murine proGDF11 [1] was found to be 90%. The “Human proGDF11 % Inhibition” value in the assay with human proGDF11 [2] stood at 96%. Also, the “EC50, proGDF11 activation assay at 50 nM proGDF11” value with human proGDF11 [5] came to 30.1 nM. Moreover, the dissociation constant Kd with human latent GDF11 and with human proGDF11 [3] was less than 0.001 nM in each case.

B3: GDF11 Inh-6 (antibody, V domains shown)
VH: QVQLQESGPGLVKPSETLSLTCTVSGGSISSSSYYWGWVRQPPGKGLEWIGEIYHSGSTNYNPSLKSRVTISVDTSKNQFSLKLSSVTAADTAVYYCARVGTSWEYYFDYWGQGTLVTVSS
VL: DIQMTQSPASLSASVGDRVTITCRTSQHIINYLNWYQQRPGKAPNLLIYKASTLQSGVPSRFSGSGSGTHFTLTISSLQPEDFATYYCQQYQSYPITFGQGTRLEIKR
notes: also called Clone GDF11 Inh-6
Turning to B3, the binding result (with human proGDF8; in [6]) was “no binding” throughout. In addition, the “Murine proGDF11 % inhibition” value in the assay with murine proGDF11 [1] turned out to be 63%. Further, the “Human proGDF11 % Inhibition” value with human proGDF11 [2] was 77%. Further, binding with human proGDF11 [3] was characterised by a dissociation constant (Kd) of 0.75 nM.

B4: GDF11 Inh-3 (antibody, V domains shown)
VH: QVQLVQSGGGVVQPGRSLRLSCAASGFTFSSYAMHWVRQAPGKGLEWVAVISYDGSNEYYADSVKGRFTISRDNSKNTLYLQMNSLRAEDTAVYYCAKDFWSGYPQYNWFDPWGQGTLVTVSS
VL: EIVMTQSPATLSLSAGERATLSCRASQSVSNYLAWYQQKPGQAPRLLIYDASNRATGIPARFSGSGSGTDFTLTISSLEPEDFAVYYCQQYGSAPLTFGGGTNVEIKR
notes: also called Clone GDF11 Inh-3
As to B4, the binding result (with human proGDF8; with human mature GDF11; in assay [6]; in the assay with human proGDF11 ARM8) was “no binding” throughout. Also, in the assay with murine proGDF11 [1], the “Murine proGDF11 % inhibition” value was 88%. In the assay with human proGDF11 [2], the “Human proGDF11 % Inhibition” value came to 87%. Further, the Kd in the assay with murine proGDF11 [7] stood at 0.937 nM; with human proGDF11 [3] it was 0.71 nM.

B5: GDF11 Inh-1 (antibody, V domains shown)
VH: EVQLLESRGGLVQPGRSLRLSCAASGFTFDDYAMHWVRQAPGKGLEWVSGISWNSGSIGYADSVKGRFTISRDNTKNSLYLQMNSLRAEDTGVYYCAREVTGDLDYWGQGTLVTVSS
VL: EIVMTQSPGTLSLSPGERATLSCRASQFLSSTYLAWYQQRPGQAPRLLIYSASNRATGVPDRFSGSGSGTDFTLKISRVEAEDVGVYYCMQATHWPYTFGQGTKLEIKR
notes: also called Clone GDF11 Inh-1
With B5, the binding result with human mature GDF11 is given as “no binding”. For the same molecule, the “Murine proGDF11 % inhibition” value with murine proGDF11 [1] stood at 80%. In addition, in the assay with human proGDF11 [2], the “Human proGDF11 % Inhibition” value is 91%. Further, in the assay with human proGDF11 [5], the “EC50, proGDF11 activation assay at 50 nM proGDF11” value was 87.1 nM. Further, the Kd with murine proGDF11 [7] amounted to 0.848 nM; with human proGDF11 [3], 0.49 nM.
